Results from patent US20210388087A1 (Chugai, published 2021).
Changes are numbered by the printed parent chain.

B1: CE115HA000 S52cD (antibody, human IgG1, kappa, L234A L235A, N297A, name in Kabat numbering)
heavy: QVQLVESGGGVVQPGRSLRLSCAASGFTFSNAWMHWVRQAPGKGLEWVAQIKAKDNNYATYYAESVKGRFTISRDDSKNSLYLQMNSLKTEDTAVYYCRYVHYGAYYGVDAWGQGTTVTVSSASTKGPSVFPLAPSSKSTSGGTAALGCLVKDYFPEPVTVSWNSGALTSGVHTFPAVLQSSGLYSLSSVVTVPSSSLGTQTYICNVNHKPSNTKVDKKVEPKSCDKTHTCPPCPAPEAAGGPSVFLFPPKPKDTLMISRTPEVTCVVVDVSHEDPEVKFNWYVDGVEVHNAKTKPREEQYASTYRVVSVLTVLHQDWLNGKEYKCKVSNKALPAPIEKTISKAKGQPREPQVYTLPPSRCELTKNQVSLSCAVKGFYPSDIAVEWESNGQPENNYKTTPPVLDSDGSFFLVSKLTVDKSRWQQGNVFSCSVMHEALHNHYTQKSLSLSPDYKDDDDK
chain: EPKSSDKTHTCPPCPAPELLGGPSVFLFPPKPKDTLMISRTPEVTCVVVDVSHEDPEVKFNWYVDGVEVHNAKTKPREEQYNSTYRVVSVLTVLHQDWLNGKEYKCKVSNKALPAPIEKTISKAKGQPREPQVCTLPPSRDELTKNQVSLWCLVKGFYPSDIAVEWESNGQPENNYKTTPPVLDSDGSFFLYSKLTVDKSRWQQGNVFSCSVMHEALHNRYTQKSLSLSP
light: DIVMTQSPLSLPVTPGEPASISCRSSQSLVHSNRNTYLHWYQQKPGQAPRLLIYKVSNRFSGVPDRFSGSGSGTDFTLKISRVEAEDVGVYYCGQGTQVPYTFGQGTKLEIKRTVAAPSVFIFPPSDEQLKSGTASVVCLLNNFYPREAKVQWKVDNALQSGNSQESVTEQDSKDSTYSLSSTLTLSKADYEKHKVYACEVTHQGLSSPVTKSFNRGEC
notes: one-arm antibody
B2: CE115HA000 S62K (antibody, human IgG1, kappa, L234A L235A, N297A, name in Kabat numbering)
heavy: B1 heavy with D55S, S65K
chain: B1 chain
light: B1 light
notes: one-arm antibody
B3: CE115HA000 W33A (antibody, human IgG1, kappa, L234A L235A, N297A, name in Kabat numbering)
heavy: B1 heavy with W33A, D55S
chain: B1 chain
light: B1 light
notes: one-arm antibody
B4: CE115HA000 S52cF (antibody, human IgG1, kappa, L234A L235A, N297A, name in Kabat numbering)
heavy: B1 heavy with D55F
chain: B1 chain
light: B1 light
notes: one-arm antibody
B5: CE115HA000 V100cD (antibody, human IgG1, kappa, L234A L235A, N297A, name in Kabat numbering)
heavy: B1 heavy with D55S, V109D
chain: B1 chain
light: B1 light
notes: one-arm antibody
B6: CE115HA000 V100cE (antibody, human IgG1, kappa, L234A L235A, N297A, name in Kabat numbering)
heavy: B1 heavy with D55S, V109E
chain: B1 chain
light: B1 light
notes: one-arm antibody
B7: CE115HA000 S77T (antibody, human IgG1, kappa, L234A L235A, N297A, name in Kabat numbering)
heavy: B1 heavy with D55S, S80T
chain: B1 chain
light: B1 light
notes: one-arm antibody
B8: CE115HA000 S52cG (antibody, human IgG1, kappa, L234A L235A, N297A, name in Kabat numbering)
heavy: B1 heavy with D55G
chain: B1 chain
light: B1 light
notes: one-arm antibody
B9: CE115HA000 V95G (antibody, human IgG1, kappa, L234A L235A, N297A, name in Kabat numbering)
heavy: B1 heavy with D55S, V101G
chain: B1 chain
light: B1 light
notes: one-arm antibody
B10: CE115HA000 V95D (antibody, human IgG1, kappa, L234A L235A, N297A, name in Kabat numbering)
heavy: B1 heavy with D55S, V101D
chain: B1 chain
light: B1 light
notes: one-arm antibody
B11: CE115HA000 V95A (antibody, human IgG1, kappa, L234A L235A, N297A, name in Kabat numbering)
heavy: B1 heavy with D55S, V101A
chain: B1 chain
light: B1 light
notes: one-arm antibody
B12: CE115HA000 S62D (antibody, human IgG1, kappa, L234A L235A, N297A, name in Kabat numbering)
heavy: B1 heavy with D55S, S65D
chain: B1 chain
light: B1 light
notes: one-arm antibody
B13: CE115HA000 S62P (antibody, human IgG1, kappa, L234A L235A, N297A, name in Kabat numbering)
heavy: B1 heavy with D55S, S65P
chain: B1 chain
light: B1 light
notes: one-arm antibody
B14: CE115HA000 S74A (antibody, human IgG1, kappa, L234A L235A, N297A, name in Kabat numbering)
heavy: B1 heavy with D55S, S77A
chain: B1 chain
light: B1 light
notes: one-arm antibody
B15: CE115HA000 T28D (antibody, human IgG1, kappa, L234A L235A, N297A, name in Kabat numbering)
heavy: B1 heavy with T28D, D55S
chain: B1 chain
light: B1 light
notes: one-arm antibody
B16: CE115HA000 V95E (antibody, human IgG1, kappa, L234A L235A, N297A, name in Kabat numbering)
heavy: B1 heavy with D55S, V101E
chain: B1 chain
light: B1 light
notes: one-arm antibody
B17: CE115HA000 S52cY (antibody, human IgG1, kappa, L234A L235A, N297A, name in Kabat numbering)
heavy: B1 heavy with D55Y
chain: B1 chain
light: B1 light
notes: one-arm antibody
B18: CE115HA000 S52cV (antibody, human IgG1, kappa, L234A L235A, N297A, name in Kabat numbering)
heavy: B1 heavy with D55V
chain: B1 chain
light: B1 light
notes: one-arm antibody
B19: CE115HA000 S52cQ (antibody, human IgG1, kappa, L234A L235A, N297A, name in Kabat numbering)
heavy: B1 heavy with D55Q
chain: B1 chain
light: B1 light
notes: one-arm antibody
B20: CE115HA000 T57I (antibody, human IgG1, kappa, L234A L235A, N297A, name in Kabat numbering)
heavy: B1 heavy with D55S, T60I
chain: B1 chain
light: B1 light
notes: one-arm antibody
B21: CE115HA000 S52cL (antibody, human IgG1, kappa, L234A L235A, N297A, name in Kabat numbering)
heavy: B1 heavy with D55L
chain: B1 chain
light: B1 light
notes: one-arm antibody
B22: CE115HA000 V95S (antibody, human IgG1, kappa, L234A L235A, N297A, name in Kabat numbering)
heavy: B1 heavy with D55S, V101S
chain: B1 chain
light: B1 light
notes: one-arm antibody
B23: CE115HA000 S74P (antibody, human IgG1, kappa, L234A L235A, N297A, name in Kabat numbering)
heavy: B1 heavy with D55S, S77P
chain: B1 chain
light: B1 light
notes: one-arm antibody
B24: CE115HA000 S52cK (antibody, human IgG1, kappa, L234A L235A, N297A, name in Kabat numbering)
heavy: B1 heavy with D55K
chain: B1 chain
light: B1 light
notes: one-arm antibody
B25: CE115HA000 V95K (antibody, human IgG1, kappa, L234A L235A, N297A, name in Kabat numbering)
heavy: B1 heavy with D55S, V101K
chain: B1 chain
light: B1 light
notes: one-arm antibody
B26: CE115HA000 T57K (antibody, human IgG1, kappa, L234A L235A, N297A, name in Kabat numbering)
heavy: B1 heavy with D55S, T60K
chain: B1 chain
light: B1 light
notes: one-arm antibody
B27: CE115HA000 V100cP (antibody, human IgG1, kappa, L234A L235A, N297A, name in Kabat numbering)
heavy: B1 heavy with D55S, V109P
chain: B1 chain
light: B1 light
notes: one-arm antibody
B28: CE115HA000 T57A (antibody, human IgG1, kappa, L234A L235A, N297A, name in Kabat numbering)
heavy: B1 heavy with D55S, T60A
chain: B1 chain
light: B1 light
notes: one-arm antibody
B29: CE115HA000 S62E (antibody, human IgG1, kappa, L234A L235A, N297A, name in Kabat numbering)
heavy: B1 heavy with D55S, S65E
chain: B1 chain
light: B1 light
notes: one-arm antibody
B30: CE115HA000 V11L (antibody, human IgG1, kappa, L234A L235A, N297A, name in Kabat numbering)
heavy: B1 heavy with V11L, D55S
chain: B1 chain
light: B1 light
notes: one-arm antibody
B31: CE115HA000 W33D (antibody, human IgG1, kappa, L234A L235A, N297A, name in Kabat numbering)
heavy: B1 heavy with W33D, D55S
chain: B1 chain
light: B1 light
notes: one-arm antibody
B32: CE115HA000 T57N (antibody, human IgG1, kappa, L234A L235A, N297A, name in Kabat numbering)
heavy: B1 heavy with D55S, T60N
chain: B1 chain
light: B1 light
notes: one-arm antibody
B33: CE115HA000 T28S (antibody, human IgG1, kappa, L234A L235A, N297A, name in Kabat numbering)
heavy: B1 heavy with T28S, D55S
chain: B1 chain
light: B1 light
notes: one-arm antibody

Target: T1, CD3 epsilon homodimer protein (UniProt P07766 23-126)
T1 construct: also called CD3 (CD3 epsilon)
T1 sequence (P07766 23-126): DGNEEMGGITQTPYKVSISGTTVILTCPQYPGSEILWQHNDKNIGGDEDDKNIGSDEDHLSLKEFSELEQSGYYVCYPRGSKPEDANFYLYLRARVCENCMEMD
Assay: SPR, CD3 epsilon homodimer on chip, one-arm antibody as analyte;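 also: surface plasmon resonance at 25 °C with CD3 epsilon homodimer amine-coupled to a CM4 sensor chip, antibody injected as analyte, HBS-EP+ as running buffer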

Which “KD ratio (KD of CE115HA000/KD of altered form)” value (shortened to “KD ratio”) does the source give for B1 here?
Its value is 0.55.

B2 was tested. Which “KD ratio” value did it give?
Its value is 0.99.

With B3 as the binder, how does the “KD ratio” value read?
Its value is 30.

Which “KD ratio” value does the source give for B4 here?
The value was 0.93.

Which “KD ratio” value does the source give for B5 here?
The value was 1.64.

B6 was tested. Which “KD ratio” value did it give?
Its value is 1.31.

Which “KD ratio” value does the source give for B7 here?
The value was 0.83.

How did the “KD ratio” value turn out when B8 was run?
The value was 0.81.

With B9 as the binder, how does the “KD ratio” value read?
The value was 78300.

How did the “KD ratio” value turn out when B10 was run?
The value was 108.

B11 was tested. Which “KD ratio” value did it give?
The value was 3.15.

For B12, which “KD ratio” value is on record?
The value was 0.87.

With B13 as the binder, how does the “KD ratio” value read?
Its value is 0.77.

For B14, which “KD ratio” value is on record?
The value was 0.77.

B15 was tested. Which “KD ratio” value did it give?
The value was 0.93.

Which “KD ratio” value does the source give for B16 here?
The value was 50.5.

For B17, which “KD ratio” value is on record?
Its value is 0.87.

How did the “KD ratio” value turn out when B18 was run?
Its value is 0.82.

With B19 as the binder, how does the “KD ratio” value read?
The value was 0.97.

How did the “KD ratio” value turn out when B20 was run?
Its value is 0.81.

B21 was tested. Which “KD ratio” value did it give?
Its value is 0.94.

Which “KD ratio” value does the source give for B22 here?
The value was 4.61.

B23 was tested. Which “KD ratio” value did it give?
The value was 0.7.

For B24, which “KD ratio” value is on record?
The value was 0.86.

For B25, which “KD ratio” value is on record?
The value was 1.15.

With B26 as the binder, how does the “KD ratio” value read?
The value was 1.22.

With B27 as the binder, how does the “KD ratio” value read?
The value was 0.97.

B28 was tested. Which “KD ratio” value did it give?
Its value is 0.87.

For B29, which “KD ratio” value is on record?
The value was 0.82.

How did the “KD ratio” value turn out when B30 was run?
The value was 0.83.

For B31, which “KD ratio” value is on record?
The value was 1690.

For B32, which “KD ratio” value is on record?
The value was 0.9.

For B33, which “KD ratio” value is on record?
The value was 0.79.
